Here are results for six molecules from patent US20070116673A1, “Method for activating T cell protein phosphatase and therapeutical methods based thereon” (Valtion Teknillinen Tutkimuskeskus, priority 2005, published 2007).

Counter-ions that a name gives are not always drawn.

In experiment [1] the target is T1, TCPTP (Homo sapiens, UniProt P17706).
T1 sequence (P17706 1-387 isoform P17706-2): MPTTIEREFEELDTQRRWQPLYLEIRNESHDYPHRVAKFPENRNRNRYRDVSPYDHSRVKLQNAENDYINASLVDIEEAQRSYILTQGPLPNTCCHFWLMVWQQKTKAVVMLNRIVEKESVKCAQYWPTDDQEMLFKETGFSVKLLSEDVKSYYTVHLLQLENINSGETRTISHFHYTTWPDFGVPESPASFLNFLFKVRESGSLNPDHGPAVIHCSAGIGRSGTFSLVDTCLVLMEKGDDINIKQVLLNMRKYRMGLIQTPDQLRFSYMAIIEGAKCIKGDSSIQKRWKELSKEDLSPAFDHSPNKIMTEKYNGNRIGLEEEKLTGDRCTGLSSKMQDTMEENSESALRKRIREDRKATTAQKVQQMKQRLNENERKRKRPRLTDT
As to the kind of experiment: Phosphatase assay with recombinant, purified TCPTP (diFMUP substrate). Format: biochemical. To be noted: FIG. 2B; for activation of TCPTP by small molecule compounds: preincubated with 0.2 μg/ml TCPTP 10 minutes RT, different concentrations. Details: For phosphatase assays with purified protein, full length TCPTP was incubated in phosphatase reaction buffer; GST (N); made in house; host or cells: E. coli BL21 pLysS. Here is the method:
Serum starved Hela cells were either left untreated on plastic, stimulated with 10% FBS for 30 min or detached and replated on collagen type I or poly-L-lysine (10 μg/ml, Sigma) coated tissue-culture plates for 1 h. When indicated cells were surface biotinylated as described^12. Cells were either lysed in Laemmli sample buffer and fractionated on SDS-PAGE for western blotting or lysed in lysis buffer and equal amounts of protein from each sample were precleared with protein G-Sepharose and subjected to immunoprecipitation. Antibodies (anti-TCPTP, Oncogene; anti-a1, anti-a5, anti-a6, all from Chemicon; anti-SHP-2, Santa Cruz) were incubated with protein G-Sepharose and immunoprecipitation was performed at 4° C. for 2 h. The immunoprecipitates were washed three times with cell lysis buffer. For co-precipitation assays, proteins were resolved on SDS-PAGE followed with western blotting or detection of biotin with Vectastain reagent (Vector). For phosphatase assays, immunoprecipitates were resuspended in phosphatase reaction buffer (25 mM Hepes pH 7.4, 50 mM NaCl, 1 mM DTT) and ⅓ of the reaction was subjected to western blotting and the remaining beads were assayed for phosphatase activity in triplicate using diFMUP (Molecular Probes) as a substrate and in the presence of serine/threonine phosphatase inhibitor cocktail (Sigma) according to manufacturers instructions. When indicate synthetic peptides were preincubated with the immunoprecipitates for 15 min prior to phosphatase assay reaction (α2 peptide […] (SEQ ID NO:6), a kind gift from Dr Heino). For phosphatase assays with purified protein, full length TCPTP was incubated in phosphatase reaction buffer in the presence or absence of TCPTP deletion mutant proteins and synthetic integrin cytoplasmic tail peptides as indicated. […] The phosphatase reaction was allowed to proceed for 10 minutes in RT and stopped with urea followed with measurement of umbelliferone fluorescence according to manufacturers instructions (Molecular Probes). Western blotting was performed with commercial antibodies raised against EGFR, EGFR(PY)845, 992 or 1068 (Cell Signalling Technologies), TCPTP (Oncogene) or tubulin (Santa Cruz Biotechnology). Specific binding of antibodies was detected with peroxidase-conjugated secondary antibodies and visualized by enhanced chemiluminescence detection.

For a further experiment, the system named is HeLa cells. The experiment in a line: Microinjection of fluorescein diphosphate (FDP) and peptide into live HeLa cells, phosphatase activity. Format: cell-based, human. To be noted: 1 mg/ml peptide co-injected with 1 mM FDP, 30 min; compared with α2 or PBS; FIG. 4A. Here is the method: Cells were plated on acid-washed glass coverslips coated with collagen type I, fibronectin or poly-L-lysine (10 μg/ml) and allowed to adhere for 1 h. Cells were washed in PBS and fixed with 4% paraformaldehyde for 10 min. For antibody staining, cells were permeabilized in PBS/0.1% Triton X-100 and washed with PBS/1% (w/v) BSA for blocking. Cells were stained with antibodies as indicated for 1 h at room temperature. Cells were then washed three times with PBS before detection with Alexa-488 or Alexa-555-conjugated anti-rabbit or anti-mouse antibodies (Molecular Probes). After washing in PBS and water, cells were mounted in Mowiol (100 mM Tris-HCl at pH 8.5, 10% (w/v) Mowiol (Calbiochem, San Diego, Calif.) and 25% (v/v) glycerol containing antifade (2.5% (w/v) 1,4-diazadicyclo-2.2.2-octane (Sigma)). Slides were examined using Zeiss inverted fluorescence microscope or a confocal laser scanning microscope (Axioplan 2 with LSM 510; Carl Zeiss Inc., Jena, Germany) equipped with 63×/1.4 Plan-Apochromat oil immersion objectives. Confocal images represent a single z-section of approximately 1.0 μm. Cytosolic microinjections with 1 mM FDP (Molecular probes) and 1 mg/ml of peptide in PBS were performed on Hela cells cultured on glass-bottom 3 cm plates. Fluorescence images from live cells were taken with identical settings and intensities were quantified using Zeiss Axioplan4 software.

For experiment [2], the target named is T2, TCPTP (Homo sapiens, UniProt P17706).
T2 construct: endogenous in cells; host or cells: HeLa
T2 sequence (P17706 1-415): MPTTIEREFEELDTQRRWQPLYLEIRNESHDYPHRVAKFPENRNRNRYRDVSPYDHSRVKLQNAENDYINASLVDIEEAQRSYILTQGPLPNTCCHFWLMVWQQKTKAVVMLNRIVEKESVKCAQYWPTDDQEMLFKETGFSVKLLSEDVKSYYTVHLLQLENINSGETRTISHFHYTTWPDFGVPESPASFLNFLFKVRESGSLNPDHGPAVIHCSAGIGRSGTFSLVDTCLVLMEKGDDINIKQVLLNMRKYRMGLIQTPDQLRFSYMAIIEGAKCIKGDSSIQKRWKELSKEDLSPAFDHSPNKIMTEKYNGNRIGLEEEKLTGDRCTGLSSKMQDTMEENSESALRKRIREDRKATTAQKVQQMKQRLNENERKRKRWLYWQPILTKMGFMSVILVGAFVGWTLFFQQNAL
As to the kind of experiment: Phosphatase assay of immunoprecipitated TCPTP from HeLa lysates (diFMUP substrate). Format: biochemical. Conditions: peptide preincubated with immunoprecipitate 15 min; FIG. 2A. Here is the method:
(§1) Serum starved Hela cells were either left untreated on plastic, stimulated with 10% FBS for 30 min or detached and replated on collagen type I or poly-L-lysine (10 μg/ml, Sigma) coated tissue-culture plates for 1 h. When indicated cells were surface biotinylated as described^12. Cells were either lysed in Laemmli sample buffer and fractionated on SDS-PAGE for western blotting or lysed in lysis buffer and equal amounts of protein from each sample were precleared with protein G-Sepharose and subjected to immunoprecipitation. Antibodies (anti-TCPTP, Oncogene; anti-a1, anti-a5, anti-a6, all from Chemicon; anti-SHP-2, Santa Cruz) were incubated with protein G-Sepharose and immunoprecipitation was performed at 4° C. for 2 h. The immunoprecipitates were washed three times with cell lysis buffer. For co-precipitation assays, proteins were resolved on SDS-PAGE followed with western blotting or detection of biotin with Vectastain reagent (Vector). […] The phosphatase reaction was allowed to proceed for 10 minutes in RT and stopped with urea followed with measurement of umbelliferone fluorescence according to manufacturers instructions (Molecular Probes). […] Specific binding of antibodies was detected with peroxidase-conjugated secondary antibodies and visualized by enhanced chemiluminescence detection.

Another experiment concerns the target T3, SHP-2 (Homo sapiens, UniProt Q06124).
T3 construct: endogenous in cells; host or cells: HeLa
T3 sequence (Q06124 1-593): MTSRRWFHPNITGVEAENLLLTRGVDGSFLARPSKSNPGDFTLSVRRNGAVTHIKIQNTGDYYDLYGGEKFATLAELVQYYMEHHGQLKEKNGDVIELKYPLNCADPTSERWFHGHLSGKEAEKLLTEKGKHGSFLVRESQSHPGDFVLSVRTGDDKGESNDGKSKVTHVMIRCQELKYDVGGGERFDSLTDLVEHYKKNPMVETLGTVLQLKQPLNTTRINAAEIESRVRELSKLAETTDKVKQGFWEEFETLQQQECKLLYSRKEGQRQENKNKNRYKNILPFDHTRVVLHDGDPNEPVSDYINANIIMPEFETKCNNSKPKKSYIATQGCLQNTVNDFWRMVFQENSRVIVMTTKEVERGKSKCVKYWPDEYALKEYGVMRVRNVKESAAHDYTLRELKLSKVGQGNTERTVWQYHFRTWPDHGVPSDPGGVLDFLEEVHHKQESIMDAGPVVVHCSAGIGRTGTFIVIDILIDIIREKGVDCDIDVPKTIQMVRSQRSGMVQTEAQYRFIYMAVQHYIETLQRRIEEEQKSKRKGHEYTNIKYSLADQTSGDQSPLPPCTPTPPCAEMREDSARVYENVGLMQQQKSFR
As to the kind of experiment: Phosphatase assay of immunoprecipitated SHP-2 from HeLa lysates (diFMUP substrate). It is filed as biochemical. To be noted: FIG. 2A. Here is the method:
as §1

The target of experiment [3] is T1, TCPTP. The experiment in a line: Pull-down competition: purified TCPTP with GST-α1cyt fusion protein. Format: binding. Details: purified full-length TCPTP was incubated in the lysis buffer with GST-fusion proteins; GST (N); made in house; host or cells: E. coli BL21 pLysS. To be noted: peptide 1 μg/ml, TCPTP 1 μg; FIG. 1F. Here is the method:
α1cyt and a2cyt were subcloned into pGEX4T1 (Amersham Biosciences). Full length TCPTP (45 kD) and its deletion mutants were PCR-amplified from pCG-TC45 plasmid^11 and cloned into pGEX-6P-1. GST-fusion proteins were expressed in E. coli (BL21 pLysS) and purified using manufacturer's instructions (Amersham Biosciences). Fusion proteins were either used immobilized to Glutathione-sepharose, eluted with 25 mM glutathione or GST was cleaved using precision protease according to manufacturers instructions (Amersham Biosciences). For pull-down assays, Hela cells were lysed to lysis buffer (1% octylglycoside, 50 mM Tris-HCl pH 7.5, 150 mM NaCl, 1 mM MgCl2, complete protease inhibitor (Roche)), clarified with centrifugation 10 min 13000 rpm+4 C, precleared with glutathione-sepharose and incubated with immobilized GST-fusion proteins and washed 3 times with 1 ml on the same buffer. Bound proteins were resolved on SDS-PAGE and detected with western blot. Alternatively, purified full-length TCPTP was incubated in the lysis buffer with GST-fusion proteins as indicated in the presence or absence of synthetic integrin α1 cytoplasmic tail peptide (RPLKKKMEKRPLKKKMEK, (SEQ ID NO:5) Genemed Synthesis).

`NCCC1CCCC(CCN)N1` (centres unmarked) [MDL-26,630 trihydrochloride]: the “activation of TCPTP by small molecule compounds” value (from here on “activation of TCPTP”) at TCPTP [1] was “able to activate TCPTP”. With `O=C1c2c(O)ccc(O)c2C(=O)c2c(NCCNCCO)ccc(NCCNCCO)c21` [Mitoxantrone], at TCPTP [1], the “activation of TCPTP” value was “able to activate TCPTP”. On to `N.N.N.N.N.N.N.N.N.N.N.N.N.N.[Cl-].[Cl-].[Cl-].[Cl-].[Cl-].[Cl-].[O-2].[O-2].[Ru+3].[Ru+3].[Ru+4]` [Ruthenium Red], for which, at TCPTP [1], the “activation of TCPTP” value is “able to activate TCPTP”. Regarding `NCCCCNCCCN` [Spermidine], the “activation of TCPTP” value at TCPTP [1] is listed as “able to activate TCPTP”. Turning to “synthetic α1 tail peptide: synthetic integrin α1 cytoplasmic tail peptide RPLKKKMEKRPLKKKMEK (SEQ ID NO:5), Genemed Synthesis (fusion protein)”, the “phosphatase activity in live HeLa cells (FDP fluorescence)” value in the experiment with HeLa cells is “induced phosphatase activity”. Besides, in the experiment with TCPTP [2], the “increase of catalytic activity of immunoprecipitated TCPTP” value amounted to 2.95±0.48 fold. The “activation of SHP-2 phosphatase” value with SHP-2 is on record as “not activated”. For the same molecule, in the experiment with TCPTP [3], the “competition with α1cyt for the association with TCPTP” value is “able to compete”. In the experiment with TCPTP [1] (TCPTP 0.15 μg/ml, different peptide concentrations), the “activation of recombinant, purified TCPTP by peptide” value is given as “highly activated”. With “α2 tail peptide: synthetic α2 integrin cytoplasmic tail peptide KLGFFKRKYEKMTKNPDEIDETTELSS (SEQ ID NO:6) (fusion protein)”, the “increase of catalytic activity of immunoprecipitated TCPTP” value with TCPTP [2] is reported as “no effect”. Also, in the experiment with SHP-2, the “activation of SHP-2 phosphatase” value was “not activated”.
